Where a chain is given by its changes, count along the chain named.
T1: human C1s (human, UniProt P09871 16-688)
T1 construct: Analyte in the Biacore assays; also called hC1s; serum-derived human C1s (CompTech)
T1 sequence: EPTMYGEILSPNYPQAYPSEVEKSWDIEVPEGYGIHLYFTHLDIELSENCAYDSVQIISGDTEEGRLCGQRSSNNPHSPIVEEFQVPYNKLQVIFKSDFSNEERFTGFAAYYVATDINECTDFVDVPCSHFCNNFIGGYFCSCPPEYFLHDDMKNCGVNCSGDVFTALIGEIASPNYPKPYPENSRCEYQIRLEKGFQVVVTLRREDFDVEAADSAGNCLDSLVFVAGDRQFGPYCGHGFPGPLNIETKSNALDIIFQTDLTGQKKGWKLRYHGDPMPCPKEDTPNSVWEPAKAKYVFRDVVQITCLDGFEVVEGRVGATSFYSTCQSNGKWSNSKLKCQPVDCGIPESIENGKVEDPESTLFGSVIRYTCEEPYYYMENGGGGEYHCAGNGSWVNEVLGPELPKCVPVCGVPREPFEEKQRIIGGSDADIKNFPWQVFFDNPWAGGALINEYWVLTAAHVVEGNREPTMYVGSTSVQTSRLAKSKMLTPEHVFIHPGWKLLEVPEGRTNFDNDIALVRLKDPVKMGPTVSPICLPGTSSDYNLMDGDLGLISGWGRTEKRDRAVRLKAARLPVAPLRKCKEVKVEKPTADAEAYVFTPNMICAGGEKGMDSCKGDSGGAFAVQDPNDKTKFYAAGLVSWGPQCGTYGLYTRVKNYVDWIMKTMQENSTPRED

B1: C1_IPN92H0281-SG4GK/IPN93L0024-SK1 (antibody, human IgG4 S228P, kappa, name in Kabat numbering)
heavy: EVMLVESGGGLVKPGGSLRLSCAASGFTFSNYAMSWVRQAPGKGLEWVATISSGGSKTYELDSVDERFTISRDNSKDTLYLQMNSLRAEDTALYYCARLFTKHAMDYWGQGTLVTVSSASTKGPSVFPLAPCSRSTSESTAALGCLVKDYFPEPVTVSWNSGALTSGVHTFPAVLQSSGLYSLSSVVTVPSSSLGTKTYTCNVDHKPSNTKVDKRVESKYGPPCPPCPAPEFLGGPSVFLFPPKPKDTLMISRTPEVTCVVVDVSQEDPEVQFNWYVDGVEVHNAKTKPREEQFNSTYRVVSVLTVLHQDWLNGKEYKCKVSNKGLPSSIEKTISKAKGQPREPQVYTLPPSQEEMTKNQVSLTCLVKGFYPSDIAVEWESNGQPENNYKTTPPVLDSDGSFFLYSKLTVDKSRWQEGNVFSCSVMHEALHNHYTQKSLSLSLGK
light: QIVLTQSPATLSLSPGERATLSCTASSSVSSSYLHWYQQKPGKAPKLWIYSTSNLASGVPSRFSGSGSGTDYTLTISSLQPEDFATYYCHQYYRLHPITFGQGTKLEIKRTVAAPSVFIFPPSDEQLKSGTASVVCLLNNFYPREAKVQWKVDNALQSGNSQESVTEQDSKDSTYSLSSTLTLSKADYEKHKVYACEVTHQGLSSPVTKSFNRGEC
notes: Substitutions from IPN009VH2, Kabat numbering; also called IPN92H0281/IPN93L0024
B2: C1_IPN92H0166-SG4GK/IPN93L0024-SK1 (antibody, human IgG4 S228P, kappa, name in Kabat numbering, V domains shown)
VH: EVMLVESGGGLVKPGGSLRLSCAASGFTFSNYAMSWVRQAPGKGLEWVATISSGGSHTYYEDSVKGRFTISRDNSKDTLYLQMNSLRAEDTALYYCARLFTGHAMDYWGQGTLVTVSS
VL: QIVLTQSPATLSLSPGERATLSCTASSSVSSSYLHWYQQKPGKAPKLWIYSTSNLASGVPSRFSGSGSGTDYTLTISSLQPEDFATYYCHQYYRLHPITFGQGTKLEIKR
notes: Substitutions from IPN009VH2, Kabat numbering; also called IPN92H0166/IPN93L0024
B3: C1_IPN92H0157-SG4GK/IPN93L0024-SK1 (antibody, human IgG4 S228P, kappa, name in Kabat numbering, V domains shown)
VH: B2 VH with Y59R, E61L
VL: B2 VL
notes: Substitutions from IPN009VH2, Kabat numbering; also called IPN92H0157/IPN93L0024
B4: C1_IPN92H0160-SG4GK/IPN93L0024-SK1 (antibody, human IgG4 S228P, kappa, name in Kabat numbering, V domains shown)
VH: B2 VH with Y60E, E61L
VL: B2 VL
notes: Substitutions from IPN009VH2, Kabat numbering; also called IPN92H0160/IPN93L0024
B5: C1_IPN92H0261-SG4GK/IPN93L0091-SK1 (antibody, human IgG4 S228P, kappa, name in Kabat numbering, V domains shown)
VH: B2 VH with Y60E, E61L, G102K
VL: B2 VL with Y33R
notes: Substitutions from IPN009VH2 / IPN009VK3, Kabat numbering; also called IPN92H0261/IPN93L0091
B6: C1_IPN92H0253-SG4GK/IPN93L0024-SK1 (antibody, human IgG4 S228P, kappa, name in Kabat numbering, V domains shown)
VH: B2 VH with E61L, D106K
VL: B2 VL
notes: Substitutions from IPN009VH2, Kabat numbering; also called IPN92H0253/IPN93L0024
B7: C1_IPN92H0165-SG4GK/IPN93L0024-SK1 (antibody, human IgG4 S228P, kappa, name in Kabat numbering, V domains shown)
VH: B2 VH with E61D
VL: B2 VL
notes: Substitutions from IPN009VH2, Kabat numbering; also called IPN92H0165/IPN93L0024
B8: C1_IPN92H0188-SG4GK/IPN93L0024-SK1 (antibody, human IgG4 S228P, kappa, name in Kabat numbering, V domains shown)
VH: B2 VH with E61L, K65D
VL: B2 VL
notes: Substitutions from IPN009VH2, Kabat numbering; also called IPN92H0188/IPN93L0024
B9: C1_IPN92H0162-SG4GK/IPN93L0024-SK1 (antibody, human IgG4 S228P, kappa, name in Kabat numbering, V domains shown)
VH: B2 VH with Y60K, E61L
VL: B2 VL
notes: Substitutions from IPN009VH2, Kabat numbering; also called IPN92H0162/IPN93L0024

Each binder was assayed against T1, human C1s (assay: SPR; KD at pH 5.8 (3 uM Ca) over KD at pH 7.4 (1.2 mM Ca)).
Experimental: (§1) Each antibody was captured onto the sensor surface by protein A/G. Antibody capture levels were aimed at 200 resonance unit (RU). Serum-derived human C1s (CompTech) or recombinant C1s prepared in EXAMPLE 1 was injected at 50 nM, followed by dissociation. The sensor surface was regenerated in each cycle with 10 mM Glycine-HCl, pH 1.5. […] The ratio of KD 5.8+ to KD 7.4+(“KD 5+/7+”) and that of KD 5.8− to KD 7.4+(“KD 5−/7+”) were calculated. When the KD 5+/7+ or KD 5−/7+ of a variant is larger than that of the parent antibody IPN009VH2-SG4GK/IPN009VK3-SK1, that variant is considered to be “pH”- or “pH and Ca”-dependent, respectively. When binding response in 5(+) buffer and/or in 5(−) buffer of a variant is much lower than that of IPN09VH2/IPN009VK3, that variant is also considered as “pH”- and/or “pH and Ca”-dependent. Therefore, such mutations are effective to generate “pH”- and/or “pH and Ca”-dependent antibody. To further enhance “pH” and/or “pH and Ca” dependency, a combination of histidine mutations was conducted. Antibodies with combinations of histidine mutations were evaluated using Biacore by the method described above.
(§2) C1_1IPN92H0033 (SEQ ID NO: 17)-SG4GK/IPN93L0024 (SEQ ID NO: 18)-SK1 (IPN92H0033/IPN93L0024) was selected for further optimization. Histidine, Lysine, Arginine, aspartic acid, glutamic acid, and glutamine scanning was conducted for CDRs and certain positions of FRs of IPN92H0033/IPN93L0024. Variants with a mutation were generated and purified, and evaluated using Biacore by the method mentioned above. All variants were evaluated using Biacore as mentioned above. Mutations that improved “pH” and/or “pH and Ca” dependency were selected for the combination.

| KD 5(-)/7(+) | Binder |
| --- | --- |
| 1.98 | B1 |
| 3.84 | B2 |
| 5.07 | B3 |
| 4.82 | B4 |
| 12.3 | B5 |
| 210 | B6 |
| 4.62 | B7 |
| 2.07 | B8 |
| 2.72 | B9 |

Each binder was assayed against T1, human C1s (assay: SPR; KD at pH 5.8 (1.2 mM Ca) over KD at pH 7.4 (1.2 mM Ca)).
Experimental: as §1, §2

| KD 5(+)/7(+) | Binder |
| --- | --- |
| 9.4 | B1 |
| 2.1 | B2 |
| 9.3 | B3 |
| 9 | B4 |
| 16.3 | B5 |
| 12.6 | B6 |
| 2.1 | B7 |
| 4 | B8 |
| 6.4 | B9 |

These binders were tested against T1, human C1s (assay: SPR (Biacore T200, 37C), Ab captured on protein A/G; pH 5.8, 3 uM Ca).
Experimental: as §1, §2

| Kd [nM] | koff [s⁻¹] | kon [M⁻¹ s⁻¹] | Binder |
| --- | --- | --- | --- |
| 4.98 | 0.003 | 602000 | B1 |
| 6.75 | 0.687 | 1.02e+08 | B2 |
| 10.3 | 0.00583 | 564000 | B3 |
| 7.32 | 0.00411 | 562000 | B4 |
| 12.1 | 0.00736 | 606000 | B5 |
| 25.4 | 0.0147 | 578000 | B6 |
| 8.18 | 0.715 | 8.74e+07 | B7 |
| 4.21 | 0.0106 | 2.53e+06 | B8 |
| 4.89 | 0.00784 | 1.6e+06 | B9 |

What follows are binders tested against T1, human C1s (assay: SPR (Biacore T200, 37C), Ab captured on protein A/G; pH 5.8, 1.2 mM Ca).
Experimental: as §1, §2

| Kd [nM] | koff [s⁻¹] | kon [M⁻¹ s⁻¹] | Binder |
| --- | --- | --- | --- |
| 23.6 | 0.024 | 1.02e+06 | B1 |
| 3.77 | 0.00226 | 600000 | B2 |
| 18.8 | 0.012 | 636000 | B3 |
| 13.7 | 0.00634 | 461000 | B4 |
| 16.1 | 0.00533 | 332000 | B5 |
| 1.52 | 0.000717 | 471000 | B6 |
| 3.74 | 0.00228 | 608000 | B7 |
| 8.21 | 0.00413 | 504000 | B8 |
| 11.5 | 0.00524 | 456000 | B9 |
